1 substance from article PMC9468479 can be followed below.

In general, Kd refers to the free concentration of one partner at which half of the binding sites on the other are occupied at equilibrium, for simple one-to-one binding. A lower Kd goes with higher affinity.

The assay addresses SARS-CoV-2 Omicron spike protein (SARS-CoV-2 B.1.1529 spike protein) (SARS-CoV-2 (Omicron)) (UniProt P0DTC2). The experiment in a line: SPR. On the technique in general: In SPR one partner is held on a chip, and binding of the other changes the refractive index at the surface.

“Urtica dioica agglutinin (UDA) (natural protein)” came in with a Kd of 11 nM.
